B1: Nb B83 (His- and HA-tagged) (VHH)
VHH: QVQLQESGGGLVQPGGSLRLSCAASGSIFSRNDMGWYRQAVGEARILVATITSGGVTTYADSVKGRFTISRDNAKNTVYLQMNSLKPEDTAVYYCNTLTNRRNAYWGQGTQVTVSS
notes: also called Nb83; B83HA; source: E. coli WK6 (pMECS), periplasmic, purified (IMAC, SEC)
B2: Nb B165 (His- and HA-tagged) (VHH)
VHH: QVQLQESGGGLVQAGGSLRLSCAASTRTFSSDAMGWFRQAPGKEREFVAAISISTYYADSVKGRFTISRDNAKNTMYLQMNRLKPEDTAVYYCAVKPFYGGIRYPNEYPYWGQGTQVTVSS
notes: also called Nb165; source: E. coli WK6 (pMECS), periplasmic, purified (IMAC, SEC)
B3: Nb B69 (His- and HA-tagged) (VHH)
VHH: QVQLQESGGGLVQPGGSLRLSCVSSERTFSPYTMAWFRQAPGKERDFVADIRWGDGTTRYADSVKGRFTISRDNAKNTVFLQTNSLTPEDTAVYYCAHKTWYPRSFQAASYDFWGQGTQVTVSS
notes: also called Nb69; source: E. coli WK6 (pMECS), periplasmic, purified (IMAC, SEC)
B4: Nb B157 (His- and HA-tagged) (VHH)
VHH: QVQLQESGGGLVQAGGSLRLSCEASGRTNTKYAWGWFRQAPGKEREFVASINWSGTLINYADSVKGRFTISRDDAKNTVYLEMSSLRPEDTAVYSCAVRYYTGTYYYTTSPDNYKHWAQGTQVTVSS
notes: also called Nb157; source: E. coli WK6 (pMECS), periplasmic, purified (IMAC, SEC)
B5: Nb B40 (His- and HA-tagged) (VHH)
VHH: QVQLQESGGGLVQAGESLRLSCATTEHANQMYAVGWFRQAPGKEREFVASINWSGTRTEHAESVKGRFTISKINPHDTVYLQMNSLKPEDTAVYACAARYYSGTYTKTDNSNDYDYWGQGTQVTVSS
notes: Detecting nanobody of the final sandwich ELISA; also called Nb40; B40HA; source: E. coli WK6 (pMECS), periplasmic, purified (IMAC, SEC)
B6: Nb B91 (His- and HA-tagged) (VHH)
VHH: QVQLQESGGGLVQAGDSLRLSCASSGRTFSSYGVGWFRQAPGKEREFVAAISWNGGSASYADSVKGRFTVSRDNAKNTVYLQMNSLQPEDTADYYCAAKVEALYGTDYFRDYDYWGQGTQVTVSS
notes: also called Nb91; source: E. coli WK6 (pMECS), periplasmic, purified (IMAC, SEC)
B7: Nb B187 (His- and HA-tagged) (VHH)
VHH: QVQLQESGGGLVQAGGSLRLSCAASGRTFSGARMGWFRQAPGKEREFVAAIRWITGSTYYTDSVKGRFTISRDIAKNTQYLQMNSLKPEDTARYYCAAGEYYGGSYSDTEKYDYWGQGTQVTVSS
notes: From an immune alpaca library raised against crude lupine protein extract; also called Nb187; B187HA; source: E. coli WK6 (pMECS), periplasmic, purified (IMAC, SEC)
B8: Nb B167 (His- and HA-tagged) (VHH)
VHH: QVQLQESGGGLVQAGGSLRLSCAASRRTSRNYDMTWFRQFPGTEREFVAFISWGGSRIYYADSVKGRFTISRDNAKDTVYLQMNSLKPEDTAVYYCAADPRLVRGRYESDYWGQGTQVTVSS
notes: also called Nb167; source: E. coli WK6 (pMECS), periplasmic, purified (IMAC, SEC)
B9: Nb B50 (His- and HA-tagged) (VHH)
VHH: QVQLQESGGGLVQAEGSLRLSCTVSGRTFSRDAMGWFRRPPGKEREFVAAISWNGASTSYADSVKGRFTVSRDNAKNTSLLQMNSLKPEDTAVYYCATYWSSAIPPLAAATSATYWGQGTQVTVSS
notes: also called Nb50; source: E. coli WK6 (pMECS), periplasmic, purified (IMAC, SEC)
B10: Nb B42 (His- and HA-tagged) (VHH)
VHH: QVQLQESGGGLVQAGGSLRLSCAASGRTFSSYAMGWFRQAPGKEREFVAAISWSGGSTYYADSVKGRFTISRDNAKNTVYLQMNSLKPEDTAVYYCAVDQWILEVNAAFQADYWGQGTQVTVSS
notes: also called Nb42; source: E. coli WK6 (pMECS), periplasmic, purified (IMAC, SEC)
B11: Nb B66 (His- and HA-tagged) (VHH)
VHH: QVQLQESGGGLVQAGGSLRLSCAASGRTFSSYGIGWFRQAPGKEREFVASISWSGGSTYYADSVKGRFTISRDNAKNTVYLQMNSLKPEDTAVYYCAAVIEAIDFVPVEYDYWGQGTQVTVSS
notes: also called Nb66; source: E. coli WK6 (pMECS), periplasmic, purified (IMAC, SEC)
B12: Nb B163 (His- and HA-tagged) (VHH)
VHH: QVQLQESGGGLAQAGGSLTLSCAASGRTFSIPTMGWFRQAPGKEREFVAAIGRTTAYTGSVKGRFTISRDSAKNTVSLQMNSLNIEDTGVYYCASSQSPWSSPPLTENMYAYWGQGTQVTVSS
notes: also called Nb163; source: E. coli WK6 (pMECS), periplasmic, purified (IMAC, SEC)

target: T1, Lup an 1 (Lupinus angustifolius (by the …, UniProt F5B8W3)); test: ELISA; crude lupine extract (50 μg/mL) coated overnight at 4 °C; Nbs serially diluted in PBS, 1 h at room temperature; detected by mouse anti-His IgG and HRP goat anti-mouse IgG; apparent affinity = concentration at half of the maximum signal; settings: one partner purified
T1 construct: Lup an 1, lupin β-conglutin, a 7S seed storage globulin of the vicilin-like proteins; found by LC-MS/MS of the ~55 kDa band immunocaptured from crude lupine extract; UniProt F5B8W3.1; size distribution printed as 55 to 61 kDa; Never purified: it stood in a crude lupine protein extract in every experiment; Seen as a band of ~55 kDa; also called lupin β-conglutin; lupine allergen Lup an 1; source: …
T1 sequence (F5B8W3 31-637): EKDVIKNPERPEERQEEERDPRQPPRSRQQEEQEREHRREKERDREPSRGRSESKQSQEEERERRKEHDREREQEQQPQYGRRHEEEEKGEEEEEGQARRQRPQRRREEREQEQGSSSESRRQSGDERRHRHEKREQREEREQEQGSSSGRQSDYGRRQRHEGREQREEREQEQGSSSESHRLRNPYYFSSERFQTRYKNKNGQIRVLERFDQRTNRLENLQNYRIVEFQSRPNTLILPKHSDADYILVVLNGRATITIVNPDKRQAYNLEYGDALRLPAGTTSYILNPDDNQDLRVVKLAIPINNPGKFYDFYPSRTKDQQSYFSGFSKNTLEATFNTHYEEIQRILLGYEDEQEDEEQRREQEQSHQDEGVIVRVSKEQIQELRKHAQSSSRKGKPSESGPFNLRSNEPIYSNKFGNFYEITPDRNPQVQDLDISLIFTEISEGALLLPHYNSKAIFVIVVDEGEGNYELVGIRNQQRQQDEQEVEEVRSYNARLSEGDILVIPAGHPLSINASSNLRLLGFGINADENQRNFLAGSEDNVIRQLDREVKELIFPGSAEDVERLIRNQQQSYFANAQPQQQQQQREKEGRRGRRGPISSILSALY

Row | Binder | EC50 [nM]
1 | B1 | 1
2 | B2 | 31
3 | B3 | 325
4 | B4 | 680
5 | B5 | 8
6 | B6 | 9
7 | B7 | 14
8 | B8 | 13
9 | B9 | 16
10 | B10 | 24
11 | B11 | 180
12 | B12 | 45
